Reference: patent US20220048954A1
Values joined by “and” are separate entries in the source; they are usually repeats but may differ in a detail not shown here. Equal values may be shown once.

Molecular target: mouse angiotensin converting enzyme 2 (ACE2) (mouse) (UniProt Q8R0I0)
Assay: cell-based or functional assay

Chain of UniProt Q8R0I0 (Q8R0I0 18-805): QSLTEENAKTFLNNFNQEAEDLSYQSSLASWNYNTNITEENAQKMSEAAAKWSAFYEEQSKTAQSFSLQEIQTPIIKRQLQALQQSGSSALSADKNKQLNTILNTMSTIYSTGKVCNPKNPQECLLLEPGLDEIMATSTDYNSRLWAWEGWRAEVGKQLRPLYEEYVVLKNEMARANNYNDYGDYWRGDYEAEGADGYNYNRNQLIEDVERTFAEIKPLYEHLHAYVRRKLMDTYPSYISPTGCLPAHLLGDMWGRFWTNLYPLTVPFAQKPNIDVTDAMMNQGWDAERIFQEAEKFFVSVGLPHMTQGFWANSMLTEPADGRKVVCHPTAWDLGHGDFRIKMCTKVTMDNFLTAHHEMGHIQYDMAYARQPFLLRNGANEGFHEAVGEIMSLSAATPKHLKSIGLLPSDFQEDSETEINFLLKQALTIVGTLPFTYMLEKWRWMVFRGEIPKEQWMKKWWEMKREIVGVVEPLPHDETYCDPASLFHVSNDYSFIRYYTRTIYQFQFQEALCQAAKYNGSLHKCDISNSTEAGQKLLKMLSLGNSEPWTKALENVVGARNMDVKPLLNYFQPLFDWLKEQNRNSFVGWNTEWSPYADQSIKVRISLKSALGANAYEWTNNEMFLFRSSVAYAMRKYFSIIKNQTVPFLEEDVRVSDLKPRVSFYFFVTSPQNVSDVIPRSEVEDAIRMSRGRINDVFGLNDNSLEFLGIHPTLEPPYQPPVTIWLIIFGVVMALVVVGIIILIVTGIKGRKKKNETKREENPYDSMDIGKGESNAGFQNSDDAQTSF

Substance: SARS-CoV2 Spike protein, WT (614D), with C-terminal HA tag (from UniProt P0DTC2 14-1273)
- cell fusion assay, FACS red/green double positive events (x over the baseline without Spike): 17 and 18
